The values below come from patent publication US20260250352A1.

Common to all, as to experiment: cell-based or functional assay
The target in test [1] is APRIL + BAFF in combination (human).
The target in test [2] is recombinant human APRIL (human) (UniProt O75888).
Test [3] concerns the target single chain BAFF-APRIL-APRIL heterotrimer (BAA) (human) (UniProt Q9Y275).
Test [4] deals with APRIL + BAFF in combination (human). The source holds these as a separate data set.

Where two headings read alike, the source gives them in different places.

single chain BAFF-APRIL-APRIL heterotrimer (BAA) (human), sequence (Q9Y275 other isoform, or with tags, fused parts or gaps limits assumed): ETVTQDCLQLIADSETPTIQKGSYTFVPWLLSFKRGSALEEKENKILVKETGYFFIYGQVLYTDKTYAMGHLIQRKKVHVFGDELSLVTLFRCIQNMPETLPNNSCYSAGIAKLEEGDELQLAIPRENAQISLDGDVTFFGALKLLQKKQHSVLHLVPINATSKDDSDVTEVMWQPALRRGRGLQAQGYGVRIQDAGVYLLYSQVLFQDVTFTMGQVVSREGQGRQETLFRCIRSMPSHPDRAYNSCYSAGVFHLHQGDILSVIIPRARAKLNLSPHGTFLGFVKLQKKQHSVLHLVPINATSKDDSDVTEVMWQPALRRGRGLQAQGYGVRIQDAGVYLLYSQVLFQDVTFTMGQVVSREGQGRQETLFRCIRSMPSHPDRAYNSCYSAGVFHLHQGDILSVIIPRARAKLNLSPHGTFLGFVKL

B1: Belimumab (antibody, INN chains, looked up, V domains shown)
VH: QVQLQQSGAEVKKPGSSVRVSCKASGGTFNNNAINWVRQAPGQGLEWMGGIIPMFGTAKYSQNFQGRVAITADESTGTASMELSSLRSEDTAVYYCARSRDLLLFPHHALSPWGRGTMVTVSS
VL: SSELTQDPAVSVALGQTVRVTCQGDSLRSYYASWYQQKPGQAPVLVIYGKNNRPSGIPDRFSGSSSGNTASLTITGAQAEDEADYYCSSRDSSGNHWVFGGGTELTVLG
In the case of B1, the IC50, Jurkat/NF-kB/TACI reporter in test [1] is greater than 100 nM. Besides, in test [2], the IC50, Jurkat/NF-kB/TACI reporter was determined as 215000 nM and the IC50 relative to TACI 30-110-Fc was determined as 55.8.

B2: Anti-APRIL mAb based on the published VIS649 (sibeprenlimab) sequence (antibody, INN chains, looked up, V domains shown)
VH: QVQLVQSGAEVKKPGASVKVSCKASGYTFTDYTIHWVRQATGQGLEWMGWIYPLRGSINYAQKFQGRVTMTADKSISTVYMELSSLRSEDTAVYFCARHGAYYSNAFDYWGQGTLVTVSS
VL: EIVMTQSPATLSVSPGERATLSCRASESVDNDGIRFLHWYQQKPGQAPRLLIYRASTRATGIPARFSGSGSRTEFTLTISSLQSEDFAVYYCQQSNKDPYTFGGGTKVEIK
On to B2, for which the IC50, TACI/Jurkat/NF-kB reporter came to 5.1 nM in test [2] and 0.144 nM in test [3].

B3: Anti-APRIL mAb based on the published BION-1301 sequence (antibody, INN chains, looked up, V domains shown)
VH: QVQLVQSGAEVKKPGASVKVSCKASGYTFTDYTIHWVRQATGQGLEWMGWIYPLRGSINYAQKFQGRVTMTADKSISTVYMELSSLRSEDTAVYFCARHGAYYSNAFDYWGQGTLVTVSS
VL: EIVMTQSPATLSVSPGERATLSCRASESVDNDGIRFLHWYQQKPGQAPRLLIYRASTRATGIPARFSGSGSRTEFTLTISSLQSEDFAVYYCQQSNKDPYTFGGGTKVEIK
For the molecule B3, the IC50, Jurkat/NF-kB/TACI reporter in test [1] is greater than 100 nM; in test [2] it was 4.9 nM. Besides, the IC50, TACI/Jurkat/NF-kB reporter in test [1] was greater than 200 nM; in test [2], 21.9 nM.

B4: 26 TACI CRD2-Fc (Fc fusion)
chain: SLSCRKEQGEYYDHLLRDCISCASICGQHPKQCADFCENKLRSGSGGGGSEPKSSDKTHTCPPCPAPEAEGAPSVFLFPPKPKDTLMISRTPEVTCVVVDVSHEDPEVKFNWYVDGVEVHNAKTKPREEQYNSTYRVVSVLTVLHQDWLNGKEYKCKVSNKALPAPIEKTISKAKGQPREPQVYTLPPSRDELTKNQVSLTCLVKGFYPSDIAVEWESNGQPENNYKTTPPVLDSDGSFFLYSKLTVDKSRWQQGNVFSCSVMHEALHNHYTQKSLSLSPG
With B4, in test [4], the IC50, Jurkat/NF-kB/TACI reporter was 1.39 nM; the IC50, TACI/Jurkat/NF-kB reporter is 3.1 nM; the fold better IC50 than anti-APRIL mAb plus belimumab amounted to 3.5 fold; the fold lower IC50 than telitacicept is greater than 50 fold.

B5: Telitacicept, O14836 13-118 (Fc fusion, not shown: a dimerising Fc or GST)
chain: SRVDQEERFPQGLWTGVAMRSCPEEQYWDPLLGTCMSCKTICNHQSQRTCAAFCRSLSCRKEQGKFYDHLLRDCISCASICGQHPKQCAYFCENKLRSPVNLPPEL
modifications: here or on the partner: The drug is a disulfide-linked Fc-fusion homodimer. Only one TACI ECD arm is given, and the Fc is left out.
Turning to B5, in test [4], the IC50, Jurkat/NF-kB/TACI reporter came to 16.8 nM and the IC50, TACI/Jurkat/NF-kB reporter was greater than 200 nM.
